The target in assay [1] is T1, extracellular domain of human CD70 (SEQ ID NO: 89), hCD70-Fc-trimer, ACRO Biosystems (human, UniProt P32970 52-193, chemically biotinylated where the biotinylated form was used).
T1 construct: also called human CD70-Fc-trimer; Bio.CD70
T1 sequence: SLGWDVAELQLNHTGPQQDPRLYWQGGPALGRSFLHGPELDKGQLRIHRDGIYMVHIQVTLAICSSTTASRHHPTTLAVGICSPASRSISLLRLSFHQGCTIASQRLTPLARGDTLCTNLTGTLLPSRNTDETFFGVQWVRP
The assay can be described thus: SPR (ProteOn XPR36), target on GLC chip.

A further assay deals with T2, human serum albumin (human, UniProt P02768 25-609).
T2 construct: also called HSA; SA
T2 sequence (P02768 25-609 limits assumed): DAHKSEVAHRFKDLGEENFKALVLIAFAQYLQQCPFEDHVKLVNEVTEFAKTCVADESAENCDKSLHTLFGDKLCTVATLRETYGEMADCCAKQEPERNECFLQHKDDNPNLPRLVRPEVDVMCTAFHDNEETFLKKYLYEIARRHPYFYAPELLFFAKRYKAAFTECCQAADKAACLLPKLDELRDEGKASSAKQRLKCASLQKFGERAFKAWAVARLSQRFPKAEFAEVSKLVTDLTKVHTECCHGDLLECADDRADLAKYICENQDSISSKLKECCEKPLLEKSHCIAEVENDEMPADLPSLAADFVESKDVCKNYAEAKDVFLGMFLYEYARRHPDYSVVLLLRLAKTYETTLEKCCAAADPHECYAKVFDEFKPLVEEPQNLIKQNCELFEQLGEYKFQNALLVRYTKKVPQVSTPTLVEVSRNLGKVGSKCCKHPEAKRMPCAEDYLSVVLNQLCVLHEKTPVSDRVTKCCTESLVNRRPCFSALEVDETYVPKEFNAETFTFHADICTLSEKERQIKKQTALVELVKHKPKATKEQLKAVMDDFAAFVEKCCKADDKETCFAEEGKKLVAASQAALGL
The assay is described as follows: SPR (ProteOn XPR36), target on GLC chip.

The target of assay [2] is T3, biotinylated extracellular domain of human CD123 (SEQ ID NO: 88), Fc and Avi tagged (human, UniProt P26951 19-303, biotinylated with BirA-GST (Avi tag)).
T3 construct: also called hCD123
T3 sequence: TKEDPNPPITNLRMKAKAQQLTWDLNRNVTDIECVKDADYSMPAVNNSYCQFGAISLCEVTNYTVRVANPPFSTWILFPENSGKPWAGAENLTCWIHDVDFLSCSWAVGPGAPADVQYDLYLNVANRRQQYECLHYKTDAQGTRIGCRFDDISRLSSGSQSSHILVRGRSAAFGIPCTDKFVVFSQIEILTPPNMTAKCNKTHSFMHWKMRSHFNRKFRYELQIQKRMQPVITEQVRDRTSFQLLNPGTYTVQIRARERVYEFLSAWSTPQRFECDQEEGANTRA
The assay is described as follows: SPR (ProteOn XPR36), target on GLC chip, DARPin as analyte.

The target of assay [3] is T4, human CD3 on primary human pan-T cells (human, UniProt P07766 23-207; P09693 23-182; P04234 22-171; P20963 22-164).
T4 construct: whole, on cells; Native complex on T cells isolated from PBMC; also called CD3 on Pan-T cells
T4 sequence (P07766 23-207, chain 1 of 4): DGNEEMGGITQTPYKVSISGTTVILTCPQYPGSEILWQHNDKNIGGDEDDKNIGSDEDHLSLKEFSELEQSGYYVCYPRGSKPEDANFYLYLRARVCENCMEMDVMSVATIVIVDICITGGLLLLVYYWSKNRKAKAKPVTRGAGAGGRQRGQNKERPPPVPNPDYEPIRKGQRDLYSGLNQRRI
T4 sequence (P09693 23-182, chain 2 of 4): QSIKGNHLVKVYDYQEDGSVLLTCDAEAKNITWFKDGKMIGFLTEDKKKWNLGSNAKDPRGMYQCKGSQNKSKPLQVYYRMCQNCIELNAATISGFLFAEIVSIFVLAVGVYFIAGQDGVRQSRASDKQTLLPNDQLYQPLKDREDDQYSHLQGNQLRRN
T4 sequence (P04234 22-171, chain 3 of 4): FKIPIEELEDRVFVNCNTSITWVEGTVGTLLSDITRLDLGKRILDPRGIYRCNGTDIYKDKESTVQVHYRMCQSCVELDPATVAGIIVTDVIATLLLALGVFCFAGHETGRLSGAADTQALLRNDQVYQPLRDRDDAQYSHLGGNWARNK
T4 sequence (P20963 22-164, chain 4 of 4): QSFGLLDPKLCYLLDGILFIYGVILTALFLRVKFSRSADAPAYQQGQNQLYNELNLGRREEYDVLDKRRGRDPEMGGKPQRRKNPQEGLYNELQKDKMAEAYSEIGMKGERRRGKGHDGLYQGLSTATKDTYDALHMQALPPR
The assay is described as follows: Mirrorball cytometry on primary human pan-T cells, 600 µM HSA. As for the experimental part: The determination of T cell binding was performed with primary human T cells using Mirrorball laser scanning imaging cytometry. Therefore, primary T cells were isolated from human peripheral blood mononuclear cells (PBMCs) using a pan-T cell purification kit (Miltenyi Biotec). A titration of DARPin® protein #27, DARPin® protein #28 and DARPin® protein #29 and DARPin® protein #30 were incubated with 50′000 pan-T cells per well in presence of 600 μM human serum albumin (to mimic physiological serum concentration) for 30 minutes at 4° C. Two benchmark T-cell engagers, AMG330 and flotetuzumab were applied as controls, targeting CD33 or CD123. After washing, CD3 binding was detected by 1:100-diluted anti-penta-His Alexa Fluor 488 antibody (Qiagen). After 30 min incubation at 4° C., cells were washed and resuspended in Cytofix fixation buffer (BD Biosciences) and counterstained by 5 μM DRAQ5 (Abcam) for 15 min at RT. Median of mean fluorescence intensities of Alexa Fluor 488 binding on far-red counterstained cells were measured by Mirrorball using Cellista software (SPT Labtech) and data was plotted using GraphPad Prism 8.

The text below walks through data of patent publication US20240254229A1 (Molecular Partners, published 2024).

As usually defined, the Kd is the constant that tells how readily two partners part at equilibrium. Higher therefore signals lower affinity. For orientation: EC50 means the concentration that produces a half-maximal response. A higher EC50 goes with a less potent agent.

B1: DARPin® protein #27 (designed binder)
chain: DLGKKLLEAALEGQLDEVRELLKAGADVNAKDQEGYTPLHLAAALGHLEIVEVLLKAGADVNAKDSIGRTPLHLAAYKGHLEIVEVLLKAGADVNAQDLLGETPADLAAEQGHQDIAEVLQKAAGSPTPTPTTPTPTPTTPTPTPTGSDLGVKLLLAASRGQLDEVRILLKAGADVNAKDIDEGYTPLHIAAYYGHLEIVEVLLKAGADVNAKDRYGKTPLHLAAISGHLEIVEVLLKAGADVNAQDDKGDTPADLAADYGHQDIAEVLQKAAGSPTPTPTTPTPTPTTPTPTPTGSDLGQKLLEAAWAGQDDEVRELLKAGADVNAKNSRGWTPLHTAAQTGHLEIFEVLLKAGADVNAKDDKGVTPLHLAAALGHLEIVEVLLKAGADVNAQDSWGTTPADLAAKYGHEDIAEVLQKAA
notes: CD123-CD33-CD3; also called αCD123-aCD33-αCD3_1; not shown: N-terminal His-tag
Regarding B1, the binding result (in assay [1]; with human serum albumin) was “no binding (tested: 100 nM (highest concentration))” in each case. Also, in assay [2], the Kd is 19 nM. Besides, the EC50 in assay [3] came to 6.52 nM.
